Results as given in patent EP4663199A1.

What follows are binders tested against bispecific binding molecule comprising a first specific binding molecule (comprising SEQ ID NO:265 a).
Sequence of bispecific binding molecule comprising a first specific binding molecule (comprising SEQ ID NO:265 a) (chain, as listed by the source, chain 1 of 3): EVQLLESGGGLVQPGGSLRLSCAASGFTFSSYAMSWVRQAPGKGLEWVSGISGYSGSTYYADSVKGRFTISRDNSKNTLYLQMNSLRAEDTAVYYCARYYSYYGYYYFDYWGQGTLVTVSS
Sequence of bispecific binding molecule comprising a first specific binding molecule (comprising SEQ ID NO:265 a) (chain, as listed by the source, chain 2 of 3): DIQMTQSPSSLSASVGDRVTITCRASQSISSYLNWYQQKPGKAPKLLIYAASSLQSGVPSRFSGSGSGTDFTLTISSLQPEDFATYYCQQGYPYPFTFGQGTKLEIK
Sequence of bispecific binding molecule comprising a first specific binding molecule (comprising SEQ ID NO:265 a) (chain, as listed by the source, chain 3 of 3): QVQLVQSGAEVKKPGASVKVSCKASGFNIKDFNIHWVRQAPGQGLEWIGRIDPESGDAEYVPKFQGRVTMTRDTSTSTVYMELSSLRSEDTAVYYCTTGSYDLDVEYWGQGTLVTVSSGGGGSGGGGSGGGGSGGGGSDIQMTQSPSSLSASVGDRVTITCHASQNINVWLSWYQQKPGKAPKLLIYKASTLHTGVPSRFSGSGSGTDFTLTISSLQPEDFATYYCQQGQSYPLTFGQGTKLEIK
FIGITELLKSSAESLKISQAVHAAHAEINEAGREVVGSAE (modifications not checked) [peptide SEQ ID NO:241 (tag moiety …, no spacer, cargo peptide)] was tested, and the Kd was 0.013 nM. Binder FIGITELHKSSAESLKISQAVHAAHAEINEAGREVVGSAE (modifications not checked) [peptide SEQ ID NO:242 (tag moiety …, no spacer, cargo peptide)] has a Kd of 0.019 nM. For FIGITELLK (modifications not checked) [tag moiety … (SEQ ID NO:3)], the Kd was 0.063 nM. For FIGITELLKGGSSSAESLKISQAVHAAHAEINEAGREVVGSAE (modifications not checked) [peptide SEQ ID NO:244 (tag moiety …, GGS spacer, cargo peptide)], the Kd was 0.019 nM. With FIGITELHKGGSSSAESLKISQAVHAAHAEINEAGREVVGSAE (modifications not checked) [peptide SEQ ID NO:245 (tag moiety …, GGS spacer, cargo peptide)] the Kd was 0.0054 nM. For FIGITELHK (modifications not checked) [tag moiety … (SEQ ID NO:4)], the Kd was 0.015 nM. For FIGITELHKGGSAVGALKVPRNQDWLGVPRQL (modifications not checked) [peptide SEQ ID NO:239 (tag moiety …, GGS spacer, cargo peptide)], the Kd was 0.063 nM. Binder FIGITELLKGGSAVGALKVPRNQDWLGVPRQL (modifications not checked) [peptide SEQ ID NO:238 (tag moiety …, GGS spacer, cargo peptide)] has a Kd of 0.171 nM.
